Laboratory results taken from patent publication US20220017612A1 (TILOS THERAPEUTICS, published 2022).

What was measured:
[1] = biological target: T1, human LAP-TGFβ1 overexpressed on cells (human, UniProt P01137 30-390); test: flow cytometry; black bar HT1080-huB1, grey bar HT1080
T1 construct: HT1080 or P3U1 cells overexpressing wild-type human LAP-TGFβ1; also called HT1080-huB1; HT1080-hβ1
Protocol: First, the ability of 22F9H0L0, HILO, H2L0, H3L0, H4L0, H5L0, H0L1, H1L1, H2L1, H3L1, H4L1, H5L1, H0L2, H1L2, H2L2, H3L3, H4L2, and H5L2 to bind to HT1080 cells overexpressing human TGFβ1 was tested by flow cytometry. HT1080 cells over-expressing human LAP-TGFβ1 were placed in a round-bottom 96-well plate at density of 40,000 cells/well. The cells were washed with FACS buffer (25 mM HEPES, 2 mM EDTA, 2% fetal bovine serum in Hank's Balanced Salt Solution). 50 μL of 1:200 diluted TruStain Human FcX (BioLegend) was added to each well, followed by 50 μL of 100 ng/μL of humanized 22F9 construct. The antibody was allowed to bind for 20 minutes. The cells were washed twice with FACS buffer. The cells were labeled for 15 minutes with Alexa647-anti Human IgG (Jackson Immunoresearch), washed twice with FACS buffer, and analyzed by flow cytometry.

[2] = biological target: T2, fusion protein of a human IgG1 Fc domain and human LAP-TGFβ1 (human, UniProt P01137 30-390); test: BLI, signal change on binding
T2 construct: printed both as Fc-huB1 and LAP-TGFβ-Fc; also called Fc-huB1; Fc-human LAP
Protocol: (§1) Binding to human TGFβ1 of a subset of candidates was also tested by bio-layer interferometry (Octet). A streptavidin coated tip was equilibrated for 60 seconds in binding buffer (10 mM sodium phosphate, 150 mM sodium chloride, 1% bovine serum albumin, 0.05% sodium azide). The tip was then dipped in 10 μg/mL biotinylated antibody in binding buffer. After 15 seconds, the tip was washed in binding buffer for 60 seconds, and then dipped in 0-24 nM Fc-human LAP. Analyte association was measured for 5 minutes. The tip was transferred to binding buffer alone, and analyte dissociation was measured for 5 minutes. The association and dissociation data were fit to a 1:1 binding model.

[3] = biological target: T2, fusion protein of a human IgG1 Fc …; test: BLI, antibody on tip, 1:1 model
Protocol: as §1

[4] = biological target: T1, human LAP-TGFβ1 overexpressed on cells; test: cell-based or functional assay
[5] = biological target: murine LAP-TGFβ1 overexpressed on cells (mouse, UniProt P04202 30-390); test: cell-based or functional assay
Sequence of murine LAP-TGFβ1 overexpressed on cells (P04202 30-390): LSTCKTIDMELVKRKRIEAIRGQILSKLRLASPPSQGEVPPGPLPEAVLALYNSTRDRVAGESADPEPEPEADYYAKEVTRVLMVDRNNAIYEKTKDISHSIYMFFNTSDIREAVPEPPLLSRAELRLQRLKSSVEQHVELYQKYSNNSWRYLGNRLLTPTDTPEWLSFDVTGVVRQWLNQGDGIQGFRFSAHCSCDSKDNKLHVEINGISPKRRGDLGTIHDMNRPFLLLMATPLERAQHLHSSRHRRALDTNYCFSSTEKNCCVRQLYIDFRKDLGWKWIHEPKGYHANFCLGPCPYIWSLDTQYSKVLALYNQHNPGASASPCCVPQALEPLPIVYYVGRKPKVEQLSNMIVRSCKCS

T2 sequence (P01137 30-390 limits assumed): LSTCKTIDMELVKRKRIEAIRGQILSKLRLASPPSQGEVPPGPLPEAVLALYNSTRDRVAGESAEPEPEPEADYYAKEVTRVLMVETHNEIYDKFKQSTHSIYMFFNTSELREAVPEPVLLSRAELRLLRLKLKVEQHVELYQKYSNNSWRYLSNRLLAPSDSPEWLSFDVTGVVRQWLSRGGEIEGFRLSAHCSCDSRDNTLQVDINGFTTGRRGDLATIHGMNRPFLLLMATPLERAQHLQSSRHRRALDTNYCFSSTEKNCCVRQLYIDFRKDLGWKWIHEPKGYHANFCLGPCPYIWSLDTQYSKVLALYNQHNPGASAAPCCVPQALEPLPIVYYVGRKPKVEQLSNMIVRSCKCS
T1 sequence (P01137 30-390): as the sequence (P01137 30-390 limits assumed) above

Row | Binder | binding result [1] | Binding (nm) [2] [nm] | Kd [3] [nM] | koff [3] [s⁻¹] | kon [3] [M⁻¹ s⁻¹] | IC50 of inhibition of TGFβ1 activation [4] [µg/mL] | IC50 of inhibition of TGFβ1 activation [5] [µg/mL]
1 | H0L0 (antibody, human IgG1, kappa, V domains shown, also called 22F9_H0L0) VH: QVQLVQSGAEVKKPGASVKVSCKASGYTFTSYWMHWVRQAPGQGLEWMGMIHPNSGSTNYNEKFKSRVTMTRDTSTSTVYMELSSLRSEDTAVYYCARYDYDGFFDVWGQGTLVTVSS VL: DIQLTQSPSSLSASVGDRVTITCRASKSVSTSGYSYMHWYQQKPGKAPKLLIYLASNLESGVPSRFSGSGSGTDFTLTISSLQPEDFATYYCQHSRELPYTFGGGTKVEIKR | no binding (tested: single dose, 50 µL of 100 ng/µL) | – | – | – | – | – | –
2 | H0L1 (antibody, human IgG1, kappa, V domains shown, also called 22F9_H0L1) VH: QVQLVQSGAEVKKPGASVKVSCKASGYTFTSYWMHWVRQAPGQGLEWMGMIHPNSGSTNYNEKFKSRVTMTRDTSTSTVYMELSSLRSEDTAVYYCARYDYDGFFDVWGQGTLVTVSS VL: DIQLTQSPSSLSASVGDRVTITCRASKSVSTSGYSYMHWYQQKPGKPPKLLIYLASNLESGVPSRFSGSGSGTHFTLTISSLQPEDFATYYCQHSRELPYTFGGGTKVEIKR | no binding (tested: single dose, 50 µL of 100 ng/µL) | – | – | – | – | – | –
3 | H1L2 (antibody, human IgG1, kappa, V domains shown, also called 22F9_H1L2) VH: QVQLVQSGAEVKKPGASVKVSCKASGYTFTSYWMHWVRQAPGQGLEWIGMIHPNSGSTNYNEKFKSRVTMTVDTSTSTVYMELSSLRSEDTAVYYCAYYDYDGFFDVWGQGTLVTVSS VL: DIQLTQSPSSLSVSVGDRATITCRASKSVSTSGYSYMHWYQQKPGKPPKLLIYLASNLESGVPSRFSGSGSGTHFTLTISSVQPEDFATYYCQHSRELPYTFGGGTKLEIKR | no binding (tested: single dose, 50 µL of 100 ng/µL) | – | – | – | – | – | –
4 | H0L2 (antibody, human IgG1, kappa, V domains shown, also called 22F9_H0L2) VH: QVQLVQSGAEVKKPGASVKVSCKASGYTFTSYWMHWVRQAPGQGLEWMGMIHPNSGSTNYNEKFKSRVTMTRDTSTSTVYMELSSLRSEDTAVYYCARYDYDGFFDVWGQGTLVTVSS VL: DIQLTQSPSSLSVSVGDRATITCRASKSVSTSGYSYMHWYQQKPGKPPKLLIYLASNLESGVPSRFSGSGSGTHFTLTISSVQPEDFATYYCQHSRELPYTFGGGTKLEIKR | no binding (tested: single dose, 50 µL of 100 ng/µL) | – | – | – | – | – | –
5 | 22F9_H5L0 (antibody, human IgG1, kappa) heavy: not shown light: DIQLTQSPSSLSASVGDRVTITCRASKSVSTSGYSYMHWYQQKPGKAPKLLIYLASNLESGVPSRFSGSGSGTDFTLTISSLQPEDFATYYCQHSRELPYTFGGGTKVEIKRTVAAPSVFIFPPSDEQLKSGTASVVCLLNNFYPREAKVQWKVDNALQSGNSQESVTEQDSKDSTYSLSSTLTLSKADYEKHKVYACEVTHQGLSSPVTKSFNRGEC | – | 0.13 | 3.35 | 0.0017 | 510000 | – | –
6 | 22F9_H4L0 (antibody, human IgG1, kappa) heavy: not shown light: DIQLTQSPSSLSASVGDRVTITCRASKSVSTSGYSYMHWYQQKPGKAPKLLIYLASNLESGVPSRFSGSGSGTDFTLTISSLQPEDFATYYCQHSRELPYTFGGGTKVEIKRTVAAPSVFIFPPSDEQLKSGTASVVCLLNNFYPREAKVQWKVDNALQSGNSQESVTEQDSKDSTYSLSSTLTLSKADYEKHKVYACEVTHQGLSSPVTKSFNRGEC | – | 0.057 | 1.63 | 0.00132 | 810000 | – | –
7 | 22F9_H5L2 (antibody, human IgG1, kappa) heavy: not shown light: DIQLTQSPSSLSVSVGDRATITCRASKSVSTSGYSYMHWYQQKPGKPPKLLIYLASNLESGVPSRFSGSGSGTHFTLTISSVQPEDFATYYCQHSRELPYTFGGGTKLEIKRTVAAPSVFIFPPSDEQLKSGTASVVCLLNNFYPREAKVQWKVDNALQSGNSQESVTEQDSKDSTYSLSSTLTLSKADYEKHKVYACEVTHQGLSSPVTKSFNRGEC | – | 0.06 | 3.91 | 0.00246 | 629000 | – | –
8 | 22F9_H3L1 (antibody, human IgG1, kappa, V domains shown) VH: QVQLVQSGAEVKKPGASVKVSCKASGYTFTSYWMHWVRQAPGQGLEWIGMIHPNSGSTNYNEKFKSRVTLTVDKSSSTAYMELSSLRSEDTAVYYCAYYDYDGFFDVWGQGTLVTVSS VL: DIQLTQSPSSLSASVGDRVTITCRASKSVSTSGYSYMHWYQQKPGKPPKLLIYLASNLESGVPSRFSGSGSGTHFTLTISSLQPEDFATYYCQHSRELPYTFGGGTKVEIKR | binds | – | – | – | – | – | –
9 | 22F9_H3L0 (antibody, human IgG1, kappa, V domains shown) VH: QVQLVQSGAEVKKPGASVKVSCKASGYTFTSYWMHWVRQAPGQGLEWIGMIHPNSGSTNYNEKFKSRVTLTVDKSSSTAYMELSSLRSEDTAVYYCAYYDYDGFFDVWGQGTLVTVSS VL: DIQLTQSPSSLSASVGDRVTITCRASKSVSTSGYSYMHWYQQKPGKAPKLLIYLASNLESGVPSRFSGSGSGTDFTLTISSLQPEDFATYYCQHSRELPYTFGGGTKVEIKR | – | 0.023 | 2.75 | 0.00214 | 778000 | – | –
10 | 22F9_H4L2 (antibody, human IgG1, kappa) heavy: not shown light: DIQLTQSPSSLSVSVGDRATITCRASKSVSTSGYSYMHWYQQKPGKPPKLLIYLASNLESGVPSRFSGSGSGTHFTLTISSVQPEDFATYYCQHSRELPYTFGGGTKLEIKRTVAAPSVFIFPPSDEQLKSGTASVVCLLNNFYPREAKVQWKVDNALQSGNSQESVTEQDSKDSTYSLSSTLTLSKADYEKHKVYACEVTHQGLSSPVTKSFNRGEC | – | 0.07 | 2.3 | 0.00137 | 598000 | – | –
11 | 22F9_H5L1 (antibody, human IgG1, kappa) heavy: not shown light: DIQLTQSPSSLSASVGDRVTITCRASKSVSTSGYSYMHWYQQKPGKPPKLLIYLASNLESGVPSRFSGSGSGTHFTLTISSLQPEDFATYYCQHSRELPYTFGGGTKVEIKRTVAAPSVFIFPPSDEQLKSGTASVVCLLNNFYPREAKVQWKVDNALQSGNSQESVTEQDSKDSTYSLSSTLTLSKADYEKHKVYACEVTHQGLSSPVTKSFNRGEC | – | 0.08 | 2.34 | 0.00122 | 519000 | – | –
12 | 28G11_mIgG2a (antibody, V domains shown) VH: EVKLVESGGGLVQPGGSLSLSCAASGFTFTDYYMSWVRQPPGKALEWLGFIRNKPNGYTTEYSASVKGRFTISRDNSQSILYLQMNVLRAEDSATYYCARYTGGGYFDYWGQGTTLTVSS VL: DIQMTQTTSSLSASLGDRLTISCRASQDISNYLNWYQQKPDGTVKLLIYYTSRLHSGVPSRFSGSGSGTDYSLTISNLEQADIATYFCQQGDTLPWTFGGGTKLEIK | – | – | – | – | – | 1.6 | 0.8
